Positions count from the first letter of the chain named. Like-named read-outs stand apart in the source and are kept apart here.
B1: M8-C04 (Fab, V domains shown)
VH: EVQLLESGGGLVQPGGSLRLSCAASGFTFSYYPMQWVRQAPGKGLEWVSYIYPSGGLTSYADSVKGRFTISRDNSKNTLYLQMNSLRAEDTAVYYCARLFYGSGSVGFEYWGQGTLVTVSS
VL: QSALTQPPSVSVSPGQTASITCSGDKLGDKYTSWHQQKPGQSPVLVIYQDSKRPSGIPERFSGSNSGNTATLTISGTQAMDEADYYCQAWDSSTVFGGGTRLTVL
notes: HC as printed runs into CH1
B2: M6-D09 (antibody, V domains shown)
VH: EVQLLESGGGLVQPGGSLRLSCAASGFTFSFYYMVWVRQAPGKGLEWVSVIYPSGGITVYADSVKGRFTISRDNSKNTLYLQMNSLRAEDTAVYYCARDKWAVMPPYYYYAMDVWGQGTTVTVSS
VL: DIQMTQSPSSLSASVGDRVTITCRASQSIRNYLNWYQQKPGKAPNLLIYAASTLQSGVPARFSGSGSGTDFTLTISSLQPEDFATYYCQQLSGYPHTFGQGTKLEIK
notes: also called M06-D09; 559A-M06-D09
B3: M9-A03 (Fab, V domains shown)
VH: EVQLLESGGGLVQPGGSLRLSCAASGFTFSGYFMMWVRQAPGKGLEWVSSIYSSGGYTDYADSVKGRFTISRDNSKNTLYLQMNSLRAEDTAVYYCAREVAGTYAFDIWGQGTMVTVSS
VL: DIQMTQSPSSLSASLGDRVTITCRASQNIDIYLNWYQQTPGKAPKLLIYGAYNLQSGVPSRFSGSGSGTDFTLTISSLQPEDFGTYYCQQSYGTPVFGQGTKLEIK
notes: HC as printed runs into CH1
B4: M9-C08 (Fab, V domains shown)
VH: EVQLLESGGGLVQPGGSLRLSCAASGFTFSHYGMVWVRQAPGKGLEWVSYIVPSGGLTYYADSVKGRFTISRDNSKNTLYLQMNSLRAEDTAVYYCARVDYTGDGLGYWGQGTLVTVSS
VL: DIQMTQSPSSLSASVGDRVTITCRASQSISIYVNWYQQKPGKAPNLLIFAASSLQRGVPSRFSGSGSGADFTLTISSLQPEDFATYYCQQSFSTPLTFGGGTKVEIK
notes: HC as printed runs into CH1
B5: M8-H04 (Fab, V domains shown)
VH: EVQLLESGGGLVQPGGSLRLSCAASGFTFSGYWMGWVRQAPGKGLEWVSSISSSGGWTQYADSVKGRFTISRDNSKNTLYLQMNSLRAEDTATYYCARDDEIAAGGAFDIWGQGAMVTVSS
VL: DIQMTQSPSSLSASIGDRVTITCRASQYISTYLNWYEQKPGKAPKLLIYGTSSLQSGVPSRFSGSGSGTEFSLTISSLQPEDFATYYCQQSFTTPFTFGQGTKLEIK
notes: HC as printed runs into CH1
B6: M8-D05 (Fab, V domains shown)
VH: EVQLLESGGGLVQPGGSLRLSCAASGFTFSLYNMNWVRQAPGKGLEWVSSISPSGGFTDYADSVKGRFTISRDNSKNTLYLQMNSLRAEDTAVYYCARDLDLGILDYWGQGTLVTVSS
VL: DIQMTQSPSFVSASVGDRVTITCRASQDISSWLVWYQQKPGKGPKLLIYDASNLQSGVPSRFSGGGSGTHFTLTISSLQPEDFATYYCQQADGFPLTFGGGTKVEMK
notes: HC as printed runs into CH1
B7: M161-C11 (Fab, V domains shown)
VH: EVQLLESGGGLVQPGGSLRLSCAASGFTFSDYAMKWVRQAPGKGLEWVSSISSSGGVTQYADSVKGRFTISRDNSKNTLYLQMNSLRAEDTAVYYCAREEDYSSSWYSRRFDYYYGMDVWGQGTTVTVSS
VL: QSALTQPPSVSVSPGQTASITCSGDKLGDKYVSWYQQRPGQSPVLVIYQDTKRPSGIPERFSGSNSGNTATLTISGTQAVDEADYYCQAWDSSTYVFGGGTKVTVL
notes: HC as printed runs into CH1
B8: M6-D08 (Fab, V domains shown)
VH: EVQLLESGGGLVQPGGSLRLSCAASGFTFSRYHMVWVRQAPGKGLEWVSSISPSGGWTNYADSVKGRFTISRDNSKNTLYLQMNSLRAEDTAMYYCAREMATIAGQFDPWGQGTLVTVSS
VL: DIQMTQSPSSLSASVGDRVTITCRASQSISSYLNWYQQKPGKAPKLLIYGASSLQSGVPSRFSGSGSGTDFTLTISSLQPEDSATYYCQQSYTRWTFGQGTKVEIK
notes: HC as printed runs into CH1; LC amber q (WYqQK) written as Q
B9: M6-A06 (Fab, V domains shown)
VH: EVQLLESGGGLVQPGGSLRLSCAASGFTFSLYQMTWVRQAPGKGLEWVSGIWPSGGFTDYADSVKGRFTISRDNSKNTLYLQMNSLRAEDTAVYYCARVSTAVADNDYWGQGTLVTVSS
VL: DIQMTQSPSSLSASVGDSVTISCRASQSISMYLNWYQHKPGKAPKLLIYGTSSLQSGVPSRFSGSGPGGTDFTLTISSLQPEDFATYYCQQSYSAPWTFGQGTKVEIK
notes: HC as printed runs into CH1
B10: M6-D03 (Fab, V domains shown)
VH: B9 VH with L31K, Q33F, T35G, G50V, W52G, P53S, F57W, D59S
VL: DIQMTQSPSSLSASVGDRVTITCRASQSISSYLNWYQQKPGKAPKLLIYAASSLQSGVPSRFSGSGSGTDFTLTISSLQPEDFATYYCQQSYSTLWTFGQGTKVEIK
notes: HC as printed runs into CH1
B11: M8-G09 (Fab, V domains shown)
VH: EVQLLESGGGLVQPGGSLRLSCAASGFTFSLYEMLWVRQAPGKGLEWVSVIYPSGGYTDYADSVKGRFTISRDNSKNTLYLQMNSLRAEDMAVYYCARSFSGFGEIDYWGQGTLVTVSS
VL: DIQMTQSPSSLSASVGDTVTITCRASQGVSYYLAWFQQKPGKAPKSLIYGASSLQSGVPSKFSGSGSGTVFTLTISSLQPDDFATYYCQQYNTYPPTFGQGTRLDIK
notes: HC as printed runs into CH1
B12: M197-G10 (Fab, V domains shown)
VH: EVQLLESGGGLVQPGGSLRLSCAASGFTFSVYAMRWVRQAPGKGLEWVSSIYPSGGKTWYADSVKGRFTISRDNSKNTLYTLQMNSLRAEDAVYYCAYRRTGIPRRDAFDIWGQGTMVTVSS
VL: DIQMTQSPSTLSASVGDRVTITCRASQSISSWLAWYQQKPGKAPNLLIYKASTLESGVPSRFSGSGSGTEFTLTISSLQPDDFATYYCQQYNTYWTFGQGTKVEIK
B13: M198-A01 (Fab, V domains shown)
VH: EVQLLESGGGLVQPGGSLRLSCAASGFTFSPYTMIWVRQAPGKGLEWVSSISSSGGMTPYADSVKGRFTISRDNSKNTLYLQMNSLRAEDTAVYYCAYRRTGIPRRDAFDIWGQGTMVTVSS
VL: B12 VL
B14: M201-F11 (Fab, V domains shown)
VH: B13 VH with P31H, T33I, I35M, S50G, S52Y, M57I, P59V, T101S
VL: B12 VL with P80Q, D81P, F83D, A84F, T85A, Y86T, C88Y, Q89C
B15: M162-A04 (Fab) (Fab, V domains shown)
VH: B13 VH with P31H, T33I, I35M, S50G, S52Y, M57I, P59V
VL: B12 VL
notes: Non-germlined Fab discovered using phage display; HC as printed runs into CH1
B16: M8-E06 (Fab, V domains shown)
VH: EVQLLESGGGLVQPGGSLRLSCAASGFTFSHYFMTWVRQAPGKGLEWVSSIVPSGGMTQYADSVKGRFTISRDNSKNTLYLQMNSLRAEDTAVYYCARDSYSSSWFDIWGQGTMVTVSS
VL: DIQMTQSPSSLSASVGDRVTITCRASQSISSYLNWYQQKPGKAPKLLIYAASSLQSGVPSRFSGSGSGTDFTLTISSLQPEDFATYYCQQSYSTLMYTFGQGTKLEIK
notes: HC as printed runs into CH1
B17: M6-G05 (Fab, V domains shown)
VH: EVQLLESGGGLVQPGGSLRLSCAASGFTFSRYRMVWVRQAPGKGLEWVSSIYPSGGMTAYADSVKGRFTISRDNSKNTLYLQMNSLRAEDTAVYYCARDAVGIGDAFDIWGQGTMVTVSS
VL: DIQMTQSPSSLSASVGDRVTITCRASQSISTYLNWYQLKPGKAPKLLIYNAFSMERGVPSTISGSGSGTDFTLTISSLQPEDFATYYCQQSYTTPTTFGQGTKVEIK
notes: HC as printed runs into CH1
B18: M6-A08 (Fab, V domains shown)
VH: EVQLLESGGGLVQPGGSLRLSCAASGFTFSPYPMQWVRQAPGKGLEWVSSISSSGGMTEYADSVKGRFTISRDNSKNTLYLQMNSLRAEDTAVYYCARDDYGGKGGAFDIWGQGTMVTVSS
VL: DIQMTQSPSSLSASVGDRVTITCRASQRISFYLNWFQQKPGKAPNLLIYGASSLQSGVPSRFSGSGSGTDFTLTISSLQPKDFGTYYCQQTFSTPNTFGQGTKLEIK
notes: HC as printed runs into CH1
B19: M209-C12 (Fab, V domains shown)
VH: EVQLLESGGGLVQPGGSLRLSCAASGFTFSHYLMTWVRQAPGKGLEWVSYISPSGGHTIYADSVKGRFTISRDNSKNTLYLQMNSLRAEDTAVYYCARVGRGIAARSRTSQLDYWGQGTLVTVSS
VL: DIQMTQSPGTLSLSPGERATLSCRTSQFVNSNYLAWYQQTPGQAPRLLIYGASSRATGIPDRFSGTGYGTDFTLTISRLEPEDYGTYYCQQSSRTPWTFGQGTRVEIK
B20: M209-D03 (Fab, V domains shown)
VH: B19 VH with Q111F, L112F, Y114Q
VL: B19 VL
B21: M9-A08 (Fab, V domains shown)
VH: EVQLLESGGGLVQPGGSLRLSCAASGFTFSAYEMWWVRQAPGKGLEWVSYIGSSGGSTSYADSVKGRFTISRDNSKNTLYLQMNSLRAEDTAVYYCTGGNSSSFDAFDIWGQGTMVTVSS
VL: DIQMTQSPSSLSASVGDRVTVTCRASQRISTYLNWYQQKPGKAPKLLISGASSLQSGVPSRFSGSGSGTDFTLTISSLQPDDFATYYCQQSYNTPRTFGQGTKVEIR
notes: HC as printed runs into CH1

Experiments:
human plasma kallikrein [1] = target: T1, human plasma kallikrein (human, UniProt P03952 20-390; P03952 391-638); experiment: ELISA, biotinylated pKal signal over streptavidin background
T1 construct: also called pKal; Human pKal
From the text: Abbreviations used: “T/B” is the ELISA signal obtained using of the “target” (biotinylated plasma kallikrein) divided by the ELISA signal of the “background” (streptavidin); both of which were coated on microtiter plates, “nd” is not determined. The symbol “q” refers to the amber suppressible stop codon (TAG), which is translated as glutamine (Q) in strains of E. coli such as the TG1 cells that were used to express the Fab fragments.
T1 sequence (P03952 20-390, chain 1 of 2): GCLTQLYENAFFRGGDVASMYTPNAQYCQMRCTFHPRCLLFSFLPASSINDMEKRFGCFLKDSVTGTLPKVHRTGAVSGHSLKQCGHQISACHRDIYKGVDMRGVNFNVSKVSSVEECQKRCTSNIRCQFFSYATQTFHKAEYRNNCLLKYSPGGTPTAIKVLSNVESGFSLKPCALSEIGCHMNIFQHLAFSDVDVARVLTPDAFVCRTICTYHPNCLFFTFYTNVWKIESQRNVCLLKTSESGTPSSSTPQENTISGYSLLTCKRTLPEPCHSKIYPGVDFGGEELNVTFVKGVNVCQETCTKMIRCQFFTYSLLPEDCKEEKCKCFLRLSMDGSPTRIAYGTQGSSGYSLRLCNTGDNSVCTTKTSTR
T1 sequence (P03952 391-638, chain 2 of 2): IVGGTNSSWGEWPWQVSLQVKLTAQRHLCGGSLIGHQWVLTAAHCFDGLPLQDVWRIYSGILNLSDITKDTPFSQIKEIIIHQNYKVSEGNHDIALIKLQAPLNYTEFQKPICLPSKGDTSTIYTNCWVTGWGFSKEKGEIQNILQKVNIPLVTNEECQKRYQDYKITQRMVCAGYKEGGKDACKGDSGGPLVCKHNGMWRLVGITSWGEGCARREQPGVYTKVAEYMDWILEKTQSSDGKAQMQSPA

[2] = target: T2, pKal catalytic domain Mutant 2 (human, UniProt P03952 391-638, limits assumed); experiment: enzyme inhibition, equilibrium Ki,app
T2 construct: domain: catalytic domain; Expressed in Pichia pastoris, purified by IMAC; not shown: His tag fusion
T2 sequence (P03952 other isoform, or with tags, fused parts or gaps mutant limits assumed): as the sequence (P03952 391-638, chain 2 of 2) above, with R161A, Q163A, Y165A, T168A, R170A counted along it

human plasma kallikrein [3] = target: T3, human plasma kallikrein (human, UniProt P03952 20-390; P03952 391-638); experiment: cell-based or functional assay
T3 sequence (P03952 20-390, chain 1 of 2): as the sequence (P03952 20-390, chain 1 of 2) above
T3 sequence (P03952 391-638, chain 2 of 2): as the sequence (P03952 391-638, chain 2 of 2) above

human plasma kallikrein [4] = target: T3, human plasma kallikrein; experiment: cell-based or functional assay; remark: listed apart in the source

| Binder | ELISA (T/B) (human plasma kallikrein [1]) | further results |
| --- | --- | --- |
| B1 | 44.7 T/B |  |
| B2 |  | fold increase of Ki,app against the wild type catalytic domain [2]: ~5 fold |
| B3 | 14.4 T/B |  |
| B4 | 10.9 T/B |  |
| B5 | 3.3 T/B |  |
| B6 | 11.9 T/B |  |
| B7 | 41.8 T/B |  |
| B8 | 16 T/B |  |
| B9 | 11.7 T/B |  |
| B10 | 15.5 T/B |  |
| B11 | 28.2 T/B |  |
| B12 |  | % inhibition at 10 nM (human plasma kallikrein [3]): 67.6% |
| B13 |  | % inhibition at 10 nM (human plasma kallikrein [3]): 13.8% |
| B14 |  | % inhibition at 10 nM (human plasma kallikrein [3]): 15.7% |
| B15 | 11.4 T/B |  |
| B16 | 8.8 T/B |  |
| B17 | 18.5 T/B |  |
| B18 | 23.4 T/B |  |
| B19 |  | % inhibition at 10 nM (human plasma kallikrein [4]): 93.4% |
| B20 |  | % inhibition at 10 nM (human plasma kallikrein [4]): 80.4% |
| B21 | 5.5 T/B |  |

Source: patent US20260184815A1 (published 2026)
